According to patent publication US20240118272A1:

How the values were obtained:
[1] = target: CD9(FL)-ALP conjugate (human; bovine); assay: HI-1000 capture immunoassay; calibrator C4, 15 ng/mL; run 2
[2] = target: CD9(FL)-ALP conjugate (human; bovine); assay: HI-1000 capture immunoassay; calibrator C5, 30 ng/mL; run 2
[3] = target: CD9(FL)-ALP conjugate (human; bovine); assay: HI-1000 capture immunoassay; calibrator C5, 30 ng/mL; run 3
[4] = target: CD9(FL)-ALP conjugate (human; bovine); assay: HI-1000 capture immunoassay; calibrator C1, 1.0 ng/mL; run 3
[5] = target: CD9(FL)-ALP conjugate (human; bovine); assay: HI-1000 capture immunoassay; calibrator C1, 1.83 mU/L; run 2
[6] = target: CD9(FL)-ALP conjugate (human; bovine); assay: HI-1000 capture immunoassay; calibrator C3, 10.96 mU/L; run 1
[7] = target: CD9(FL)-ALP conjugate (human; bovine); assay: HI-1000 capture immunoassay; calibrator C5, 43.86 mU/L; run 1
[8] = target: CD9(FL)-ALP conjugate (human; bovine); assay: HI-1000 capture immunoassay; calibrator C5, 30 ng/mL; mean of 3
[9] = target: CD9(FL)-ALP conjugate (human; bovine); assay: HI-1000 capture immunoassay; calibrator C1, 1.0 ng/mL; mean of 3
[10] = target: CD9(FL)-ALP conjugate (human; bovine); assay: HI-1000 capture immunoassay; calibrator C2, 3.7 ng/mL; mean of 3
[11] = target: CD9(FL)-ALP conjugate (human; bovine); assay: HI-1000 capture immunoassay; calibrator C2, 5.48 mU/L; mean of 3
[12] = target: CD9(ECD)-ALP conjugate (human; bovine); assay: HI-1000 capture immunoassay; primary calibrator C1, 1.52 ng/mL; run 3
Sequence of CD9(ECD)-ALP conjugate (human; bovine) (chain, as listed by the source, chain 1 of 2): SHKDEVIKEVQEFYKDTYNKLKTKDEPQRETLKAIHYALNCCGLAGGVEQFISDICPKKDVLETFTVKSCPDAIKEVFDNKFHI
Sequence of CD9(ECD)-ALP conjugate (human; bovine) (P19111 20-506, chain 2 of 2): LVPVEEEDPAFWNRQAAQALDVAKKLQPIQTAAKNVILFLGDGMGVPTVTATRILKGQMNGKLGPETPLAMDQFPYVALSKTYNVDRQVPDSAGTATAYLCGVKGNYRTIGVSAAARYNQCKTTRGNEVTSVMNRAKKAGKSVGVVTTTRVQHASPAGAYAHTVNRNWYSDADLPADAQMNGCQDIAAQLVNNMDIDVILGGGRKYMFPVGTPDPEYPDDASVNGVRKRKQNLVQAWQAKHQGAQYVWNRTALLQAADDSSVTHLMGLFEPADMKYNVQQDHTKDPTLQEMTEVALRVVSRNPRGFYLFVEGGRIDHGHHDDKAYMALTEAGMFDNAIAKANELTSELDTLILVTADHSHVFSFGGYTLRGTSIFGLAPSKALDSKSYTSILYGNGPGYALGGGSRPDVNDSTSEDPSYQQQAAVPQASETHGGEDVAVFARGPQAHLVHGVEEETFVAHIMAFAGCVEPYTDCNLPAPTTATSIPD

[13] = target: CD9(ECD)-ALP conjugate (human; bovine); assay: HI-1000 capture immunoassay; primary calibrator C2, 4.89 ng/mL; run 1
[14] = target: CD9(ECD)-ALP conjugate (human; bovine); assay: HI-1000 capture immunoassay; primary calibrator C2, 4.89 ng/mL; run 2
[15] = target: CD9(ECD)-ALP conjugate (human; bovine); assay: HI-1000 capture immunoassay; primary calibrator C2, 4.89 ng/mL; run 3
[16] = target: CD9(ECD)-ALP conjugate (human; bovine); assay: HI-1000 capture immunoassay; secondary calibrator C1, 1.02 U/L; run 1
[17] = target: CD9(ECD)-ALP conjugate (human; bovine); assay: HI-1000 capture immunoassay; secondary calibrator C2, 3.84 U/L; run 1
[18] = target: CD9(ECD)-ALP conjugate (human; bovine); assay: HI-1000 capture immunoassay; secondary calibrator C2, 3.84 U/L; run 3
[19] = target: CD9(ECD)-ALP conjugate (human; bovine); assay: HI-1000 capture immunoassay; primary calibrator C3, 15.65 ng/mL; run 1
[20] = target: CD9(ECD)-ALP conjugate (human; bovine); assay: HI-1000 capture immunoassay; primary calibrator C3, 15.65 ng/mL; run 3
[21] = target: CD9(ECD)-ALP conjugate (human; bovine); assay: HI-1000 capture immunoassay; primary calibrator C4, 50.05 ng/mL; run 3
[22] = target: CD9(ECD)-ALP conjugate (human; bovine); assay: HI-1000 capture immunoassay; secondary calibrator C3, 14.32 U/L; run 1
[23] = target: CD9(ECD)-ALP conjugate (human; bovine); assay: HI-1000 capture immunoassay; secondary calibrator C3, 14.32 U/L; run 2
[24] = target: CD9(ECD)-ALP conjugate (human; bovine); assay: HI-1000 capture immunoassay; primary calibrator C5, 159.87 ng/mL; run 2
[25] = target: CD9(ECD)-ALP conjugate (human; bovine); assay: HI-1000 capture immunoassay; secondary calibrator C4, 129.62 U/L; run 1
[26] = target: CD9(ECD)-ALP conjugate (human; bovine); assay: HI-1000 capture immunoassay; secondary calibrator C5, 387.01 U/L; run 1
[27] = target: CD9(ECD)-ALP conjugate (human; bovine); assay: HI-1000 capture immunoassay; secondary calibrator C4; mean of 3 aliquots
[28] = target: CD9(ECD)-ALP conjugate (human; bovine); assay: HI-1000 capture immunoassay; thawed aliquot 1 of secondary calibrator C1
[29] = target: CD9(ECD)-ALP conjugate (human; bovine); assay: HI-1000 capture immunoassay; thawed aliquot 1 of secondary calibrator C2
[30] = target: CD9(ECD)-ALP conjugate (human; bovine); assay: HI-1000 capture immunoassay; thawed aliquot 1 of secondary calibrator C5
[31] = target: CD9(ECD)-ALP conjugate (human; bovine); assay: HI-1000 capture immunoassay; thawed aliquot 2 of secondary calibrator C3
[32] = target: CD9(ECD)-ALP conjugate (human; bovine); assay: HI-1000 capture immunoassay; thawed aliquot 2 of secondary calibrator C4
[33] = target: CD9(ECD)-ALP conjugate (human; bovine); assay: HI-1000 capture immunoassay; thawed aliquot 2 of secondary calibrator C5
[34] = target: CD9(ECD)-ALP conjugate (human; bovine); assay: HI-1000 capture immunoassay; thawed aliquot 3 of secondary calibrator C5
[35] = target: CD9(ECD)-ALP conjugate (human; bovine); assay: HI-1000 capture immunoassay; secondary calibrator C1, 1.02 U/L; mean of 3
[36] = target: CD9(ECD)-ALP conjugate (human; bovine); assay: HI-1000 capture immunoassay; primary calibrator C3, 15.65 ng/mL; mean of 3
[37] = target: CD9(ECD)-ALP conjugate (human; bovine); assay: HI-1000 capture immunoassay; primary calibrator C4, 50.05 ng/mL; mean of 3
[38] = target: CD9(ECD)-ALP conjugate (human; bovine); assay: HI-1000 capture immunoassay; secondary calibrator C3, 14.32 U/L; mean of 3
[39] = target: CD9(ECD)-ALP conjugate (human; bovine); assay: HI-1000 capture immunoassay; primary calibrator C5, 159.87 ng/mL; mean of 3
[40] = target: CD9(ECD)-ALP conjugate (human; bovine); assay: HI-1000 capture immunoassay; secondary calibrator C5, 387.01 U/L; mean of 3

Sequence of CD9(FL)-ALP conjugate (human; bovine) (chain, as listed by the source, chain 1 of 2): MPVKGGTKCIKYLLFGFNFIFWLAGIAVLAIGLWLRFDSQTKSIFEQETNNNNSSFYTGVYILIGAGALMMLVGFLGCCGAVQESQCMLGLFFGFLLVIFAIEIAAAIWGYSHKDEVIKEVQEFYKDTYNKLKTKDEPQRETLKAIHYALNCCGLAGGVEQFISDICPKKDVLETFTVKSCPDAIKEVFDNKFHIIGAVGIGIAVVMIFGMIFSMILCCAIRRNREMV
Sequence of CD9(FL)-ALP conjugate (human; bovine) (P19111 20-506, chain 2 of 2): as the sequence (P19111 20-506, chain 2 of 2) above

Work on anti-CD9 antibody (Clone: H19a) yielded a Count value [1] of 13800 count, a Count value [2] of 26900 count and a Count value [3] of 26100 count. For the same substance, the Count value [4] was 1470 count, the Count value [5] was 1580 count and the Count value [6] was 6330 count. For the same substance, the Count value [7] was 25800 count, the Count value (av) [8] was 25900 count and the Count value (av) [9] was 1480 count. The Count value (av) [10] was 4280 count, the Count value (av) [11] was 3640 count and the Count value [12] was 1120 count. For the same substance, the Count value [13] was 2610 count, the Count value [14] was 2520 count and the Count value [15] was 2540 count. For the same substance, the Count value [16] was 975 count, the Count value [17] was 2420 count and the Count value [18] was 2450 count. For the same substance, the Count value [19] was 7340 count, the Count value [20] was 6980 count and the Count value [21] was 22600 count. The Count value [22] was 7980 count, the Count value [23] was 8240 count and the Count value [24] was 67600 count. It also gave a Count value [25] of 71000 count, a Count value [26] of 220000 count and a Count value (av) [27] of 11600 count. For the same substance, the Count value [28] was 818 count, the Count value [29] was 1560 count and the Count value [30] was 36500 count. The Count value [31] was 4080 count, the Count value [32] was 12000 count and the Count value [33] was 36800 count. For the same substance, the Count value [34] was 35700 count, the Count value (av) [35] was 941 count and the Count value (av) [36] was 7190 count. It also gave a Count value (av) [37] of 22200 count, a Count value (av) [38] of 8090 count and a Count value (av) [39] of 69800 count. The Count value (av) [40] was 216000 count.
